Measurements published in patent US20100260717, “METHODS OF […] A […] FAMILY VIRAL INFECTION, COMPOSITIONS FOR […] A […] FAMILY VIRAL INFECTION, AND […] ASSAYS FOR […] COMPOSITIONS FOR […] A […] FAMILY VIRAL INFECTION” (published 2010).

Molecular target: HuR (ELAVL1) (Homo sapiens, UniProt Q15717 Q15717:1-326)
Experiment: MITOMI; not inhibited by clemizole 0.1 mM, inhibited by ATA
Details: tags: C-terminal V5-6xHis; bodipy-Lys labelled; wheat germ extract; ORFeome clone (Open Biosystems); label: Cy3
Experimental: Binding of HuR to the consensus 4A RNA sequence was tested in the presence of the inhibitory molecules shown to inhibit RNA binding by NS4B.

Chain of HuR (ELAVL1) (Q15717 whole entry, one chain of several): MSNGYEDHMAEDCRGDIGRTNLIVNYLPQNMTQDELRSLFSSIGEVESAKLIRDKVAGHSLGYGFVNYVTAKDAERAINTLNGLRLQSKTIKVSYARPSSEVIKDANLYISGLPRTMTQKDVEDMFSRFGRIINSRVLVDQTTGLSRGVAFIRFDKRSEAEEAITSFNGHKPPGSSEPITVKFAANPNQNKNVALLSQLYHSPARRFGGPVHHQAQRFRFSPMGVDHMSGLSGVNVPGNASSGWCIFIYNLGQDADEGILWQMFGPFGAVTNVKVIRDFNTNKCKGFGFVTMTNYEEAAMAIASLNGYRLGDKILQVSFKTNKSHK

B1: 4A (ssRNA)
RNA: AUUUAUUUAUUUAUUUA
B1: binds.
